T1: FcγRIIa H (human, UniProt P12318 34-217)
T1 construct: extracellular domain; Soluble extracellular domain with C-terminal His tag, expressed in FreeStyle293 cells; also called FcgRIIa H; 2aH; not shown: C-terminal His tag
T1 sequence (looked up): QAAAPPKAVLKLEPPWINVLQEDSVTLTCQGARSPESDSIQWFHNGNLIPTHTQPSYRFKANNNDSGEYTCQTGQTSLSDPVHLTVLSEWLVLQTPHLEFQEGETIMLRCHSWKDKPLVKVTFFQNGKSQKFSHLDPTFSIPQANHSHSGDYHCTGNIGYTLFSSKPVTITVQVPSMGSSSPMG

T2: FcγRIIb (human, UniProt P31994 43-217)
T2 construct: extracellular domain; Soluble extracellular domain with C-terminal His tag, expressed in FreeStyle293 cells; also called FcgRIIb; 2b; not shown: C-terminal His tag
T2 sequence (looked up): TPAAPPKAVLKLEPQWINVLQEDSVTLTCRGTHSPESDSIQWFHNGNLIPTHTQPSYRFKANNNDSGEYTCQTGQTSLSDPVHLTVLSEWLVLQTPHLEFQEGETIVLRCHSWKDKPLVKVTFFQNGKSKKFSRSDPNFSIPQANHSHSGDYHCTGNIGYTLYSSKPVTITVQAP

B1: GpH7-A5/GpH7-B3 variant P238_20W/GpL16-k0 (antibody, human IgG1, kappa)
heavy 1: not shown
heavy 2: not shown
light: DIVMTQSPLSLPVTPGEPASISCQASESLVHSNRNTYLHWYLQKPGQSPQLLIYKVSNRFSGVPDRFSGSGSGTDFTLKISRVEAEDVGVYYCSQNTHVPPTFGQGTKVEIERTVAAPSVFIFPPSDEQLKSGTASVVCLLNNFYPREAKVQWKVDNALQSGNSQESVTEQDSKDSTYSLSSTLTLSKADYEKHKVYACEVTHQGLSSPVTKSFNRGEC
notes: Heterodimerized anti-glypican-3 IgG1; alteration in the GpH7-B3 chain only; also called He Ab
B2: GpH7-A5/GpH7-B3 variant P238_19Q/GpL16-k0 (antibody, human IgG1, kappa)
heavy 1: not shown
heavy 2: not shown
light: B1 light
notes: as for B1
B3: GpH7-A5/GpH7-B3 variant S267_08L/GpL16-k0 (antibody, human IgG1, kappa)
heavy 1: not shown
heavy 2: not shown
light: B1 light
notes: as for B1
B4: GpH7-A5/GpH7-B3 variant P238_15Y/GpL16-k0 (antibody, human IgG1, kappa)
heavy 1: not shown
heavy 2: not shown
light: B1 light
notes: as for B1
B5: GpH7-A5/GpH7-B3 variant L234_09D/GpL16-k0 (antibody, human IgG1, kappa)
heavy 1: not shown
heavy 2: not shown
light: B1 light
notes: as for B1
B6: GpH7-A5/GpH7-B3 variant S267_14T/GpL16-k0 (antibody, human IgG1, kappa)
heavy 1: not shown
heavy 2: not shown
light: B1 light
notes: as for B1
B7: GpH7-A5/GpH7-B3 variant G237_14T/GpL16-k0 (antibody, human IgG1, kappa)
heavy 1: not shown
heavy 2: not shown
light: B1 light
notes: as for B1
B8: GpH7-A5/GpH7-B3 variant P238_04F/GpL16-k0 (antibody, human IgG1, kappa)
heavy 1: not shown
heavy 2: not shown
light: B1 light
notes: as for B1
B9: GpH7-A5/GpH7-B3 variant P238_13S/GpL16-k0 (antibody, human IgG1, kappa)
heavy 1: not shown
heavy 2: not shown
light: B1 light
notes: as for B1
B10: GpH7-A5/GpH7-B3 variant G237_20W/GpL16-k0 (antibody, human IgG1, kappa)
heavy 1: not shown
heavy 2: not shown
light: B1 light
notes: as for B1
B11: GpH7-A5/GpH7-B3 variant G237_18N/GpL16-k0 (antibody, human IgG1, kappa)
heavy 1: not shown
heavy 2: not shown
light: B1 light
notes: as for B1
B12: GpH7-A5/GpH7-B3 variant V266_06M/GpL16-k0 (antibody, human IgG1, kappa)
heavy 1: not shown
heavy 2: not shown
light: B1 light
notes: as for B1
B13: GpH7-A5/GpH7-B3 variant L235_09D/GpL16-k0 (antibody, human IgG1, kappa)
heavy 1: not shown
heavy 2: not shown
light: B1 light
notes: as for B1
B14: GpH7-A5/GpH7-B3 variant G237_15Y/GpL16-k0 (antibody, human IgG1, kappa)
heavy 1: not shown
heavy 2: not shown
light: B1 light
notes: as for B1
B15: GpH7-A5/GpH7-B3 variant G237_09D/GpL16-k0 (antibody, human IgG1, kappa)
heavy 1: not shown
heavy 2: not shown
light: B1 light
notes: as for B1
B16: GpH7-A5/GpH7-B3 variant G237_10E/GpL16-k0 (antibody, human IgG1, kappa)
heavy 1: not shown
heavy 2: not shown
light: B1 light
notes: as for B1
B17: GpH7-A5/GpH7-B3 variant G237_05P/GpL16-k0 (antibody, human IgG1, kappa)
heavy 1: not shown
heavy 2: not shown
light: B1 light
notes: as for B1

In one experiment the target is T1, FcγRIIa H. Briefly: SPR (Biacore), antibody captured, FcγR as analyte; relative to HeCon Ab. On the procedure: (§1) The heterodimerized antibodies He Abs in which one of the H chains was introduced with an alteration were assayed for their binding activities to each activating FcγR and inhibitory FcγR according to the method described in Example 4. […] The activating FcγRs in FIGS. 26, 27, 28, and 29 are FcγRIa, FcγRIIa (R), FcγRIIa (H), and FcγRIIIa, respectively.
(§2) Analysis of interaction between objective antibody and the FcγR was carried out using Biacore T100 (GE Healthcare). HBS-EP+ (GE Healthcare) was used as the running buffer, and the measurement temperature was set to 25° C. Chips produced by immobilizing the antigen peptide by the amine coupling method to a Series S Sencor Chip CM5 (GE Healthcare), or alternatively, chips produced by allowing preliminarily biotinylated antigen peptides to interact with and immobilize onto a Series S Sensor Chip SA (certified) (GE Healthcare) were used. Antibodies of interest were captured onto an antigen peptide-immobilized chip, and allowed to interact to each FcγR diluted with running buffer. To regenerate and repeatedly use the chip, the antibodies captured on the chip were washed off by reacting 10 mM glycine-HCl, pH 1.5.
For orientation: In SPR one partner is held on a chip, and binding of the other changes the refractive index at the surface.
Take B1: the He/Con_2aH was 59.5 % of GpH7-A5/GpH7-B3/GpL16-k0 (=100).

As for B2, the He/Con_2aH was 56.4 % of GpH7-A5/GpH7-B3/GpL16-k0 (=100).

With B3, the He/Con_2aH was 29 % of GpH7-A5/GpH7-B3/GpL16-k0 (=100).

For the molecule B4, the He/Con_2aH was 59.8 % of GpH7-A5/GpH7-B3/GpL16-k0 (=100).

Turning to B5, the He/Con_2aH was 89.9 % of GpH7-A5/GpH7-B3/GpL16-k0 (=100).

On to B6, for which the He/Con_2aH is 63.3 % of GpH7-A5/GpH7-B3/GpL16-k0 (=100).

Consider B7, for which the He/Con_2aH is 31.8 % of GpH7-A5/GpH7-B3/GpL16-k0 (=100).

With B8, the He/Con_2aH is 65.4 % of GpH7-A5/GpH7-B3/GpL16-k0 (=100).

With B9, the He/Con_2aH is 50.9 % of GpH7-A5/GpH7-B3/GpL16-k0 (=100).

In the case of B10, the He/Con_2aH was 31.6 % of GpH7-A5/GpH7-B3/GpL16-k0 (=100).

B11: the He/Con_2aH was 15.2 % of GpH7-A5/GpH7-B3/GpL16-k0 (=100).

As for B12, the He/Con_2aH is 83.9 % of GpH7-A5/GpH7-B3/GpL16-k0 (=100).

As for B13, the He/Con_2aH is 75.8 % of GpH7-A5/GpH7-B3/GpL16-k0 (=100).

Take B14: the He/Con_2aH was 25.4 % of GpH7-A5/GpH7-B3/GpL16-k0 (=100).

Consider B15, for which the He/Con_2aH was 11.1 % of GpH7-A5/GpH7-B3/GpL16-k0 (=100).

With B16, the He/Con_2aH was 15.1 % of GpH7-A5/GpH7-B3/GpL16-k0 (=100).

The next experiment addresses T2, FcγRIIb. Described as above. On the procedure:
as §1, §2
Turning to B17, the He/Con_2b was 24.6 % of GpH7-A5/GpH7-B3/GpL16-k0 (=100).

In the case of B1, the He/Con_2b is 123 % of GpH7-A5/GpH7-B3/GpL16-k0 (=100).

As for B2, the He/Con_2b was 110 % of GpH7-A5/GpH7-B3/GpL16-k0 (=100).

Consider B3, for which the He/Con_2b is 109 % of GpH7-A5/GpH7-B3/GpL16-k0 (=100).

As for B4, the He/Con_2b is 218 % of GpH7-A5/GpH7-B3/GpL16-k0 (=100).

As for B5, the He/Con_2b is 150 % of GpH7-A5/GpH7-B3/GpL16-k0 (=100).

In the case of B6, the He/Con_2b is 104 % of GpH7-A5/GpH7-B3/GpL16-k0 (=100).

B7: the He/Con_2b is 54.8 % of GpH7-A5/GpH7-B3/GpL16-k0 (=100).

In the case of B8, the He/Con_2b was 312 % of GpH7-A5/GpH7-B3/GpL16-k0 (=100).

Take B9: the He/Con_2b was 70.4 % of GpH7-A5/GpH7-B3/GpL16-k0 (=100).

Regarding B10, the He/Con_2b was 193 % of GpH7-A5/GpH7-B3/GpL16-k0 (=100).

Consider B11, for which the He/Con_2b was 180 % of GpH7-A5/GpH7-B3/GpL16-k0 (=100).

On to B12, for which the He/Con_2b was 251 % of GpH7-A5/GpH7-B3/GpL16-k0 (=100).

On to B13, for which the He/Con_2b was 106 % of GpH7-A5/GpH7-B3/GpL16-k0 (=100).

B14: the He/Con_2b was 152 % of GpH7-A5/GpH7-B3/GpL16-k0 (=100).

Consider B15, for which the He/Con_2b was 223 % of GpH7-A5/GpH7-B3/GpL16-k0 (=100).

For the molecule B16, the He/Con_2b is 114 % of GpH7-A5/GpH7-B3/GpL16-k0 (=100).
